# Laboratory results taken from patent US20170260282A1 (Janssen / Centocor, published 2017).
# Changes are numbered by the printed parent chain.
# B1: TRGB153 (antibody, human IgG1, kappa, V domains shown)
# VH: QVQLVQSGAEVKKPGSSVKVSCKASGGTFSSYAISWVRQAPGQGLEWMGGIIPIFGTANYAQKFQGRVTITADESTSTAYMELSSLRSEDTAVYYCARHAWLGHLDYWGQGTLVTVSS
# VL: EIVLTQSPATLSLSPGERATLSCRASQSVSSYLAWYQQKPGQAPRLLIYDASNRATGIPARFSGSGSGTDFTLTISSLEPEDFAVYYCQQRSNWPLTFGQGTKVEIKR
# notes: human IgG1/kappa
# B2: TRGB23 (antibody, human IgG1, kappa, V domains shown)
# VH: QVQLVQSGAEVKKPGSSVKVSCKASGGTFSSYAISWVRQAPGQGLEWMGGIIPIFGTANYAQKFQGRVTITADESTSTAYMELSSLRSEDTAVYYCARHGNWLHFNLDYWGQGTLVTVSS
# VL: B1 VL
# B3: TRGB159 (antibody, human IgG1, kappa, V domains shown)
# VH: QVQLVQSGAEVKKPGSSVKVSCKASGGTFSSYAISWVRQAPGQGLEWMGGIIPIFGTANYAQKFQGRVTITADESTSTAYMELSSLRSEDTAVYYCARHGRNSGRLDYWGQGTLVTVSS
# VL: B1 VL
# notes: human IgG1/kappa
# B4: TRGB34 (antibody, human IgG1, kappa, V domains shown)
# VH: EVQLVQSGAEVKKPGESLKISCKGSGYSFTSYWIGWVRQMPGKGLEWMGIIYPGDSDTRYSPSFQGQVTISADKSISTAYLQWSSLKASDTAMYYCARDYGWHDFDYWGQGTLVTVSS
# VL: B1 VL
# notes: human IgG1/kappa
# B5: TRGB31 (antibody, human IgG1, kappa, V domains shown)
# VH: EVQLVQSGAEVKKPGESLKISCKGSGYSFTSYWIGWVRQMPGKGLEWMGIIDPSDSDTRYSPSFQGQVTISADKSISTAYLQWSSLKASDTAMYYCARVFPYYGLVLDYWGQGTLVTVSS
# VL: B1 VL
# notes: human IgG1/kappa
# B6: TRGB144 (antibody, human IgG1, kappa, V domains shown)
# VH: B3 VH with R101F, N102Q, S103R, R105Y
# VL: B1 VL
# notes: human IgG1/kappa
# B7: TRGB14 (antibody, human IgG1, kappa, V domains shown)
# VH: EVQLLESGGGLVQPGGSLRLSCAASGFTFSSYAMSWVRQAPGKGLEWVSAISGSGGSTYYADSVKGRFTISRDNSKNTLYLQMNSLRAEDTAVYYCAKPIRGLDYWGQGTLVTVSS
# VL: B1 VL with S30N, S31N, Y32F, R91G, S92F, W94A
# notes: human IgG1/kappa
# B8: TRGB20 (antibody, human IgG1, kappa, V domains shown)
# VH: EVQLLESGGGLVQPGGSLRLSCAASGFTFSGYWMNWVRQAPGKGLEWVSGISSDGGSKYYADSVKGRFTISRDNSKNTLYLQMNSLRAEDTAVYYCAKEVVYDHYAALDYWGQGTLVTVSS
# VL: B1 VL with S30N, Y32F, D50Y, R91Y, S92I, N93R
# notes: human IgG1/kappa
# B9: TRGB120 (antibody, human IgG1, kappa, V domains shown)
# VH: B3 VH with H99P, G100R, S103T, G104N, R105E
# VL: not shown
# notes: human IgG1/kappa
# B10: TRGB134 (antibody, human IgG1, kappa, V domains shown)
# VH: B3 VH with G100R, R101W, N102G, R105N
# VL: B1 VL
# notes: human IgG1/kappa
# B11: TRGB35 (antibody, human IgG1, kappa, V domains shown)
# VH: B5 VH with G35S, S54G, V99H, F100R, P101W, Y102S, Y103T, G104S, V106L
# VL: B1 VL
# notes: human IgG1/kappa
# B12: TRGB5 (antibody, human IgG1, kappa, V domains shown)
# VH: EVQLLESGGGLVQPGGSLRLSCAASGFTFSGYWMSWVRQAPGKGLEWVSAISGSGGSTYYADSVKGRFTISRDNSKNTLYLQMNSLRAEDTAVYYCAKDFYWDAFDYWGQGTLVTVSS
# VL: B1 VL
# notes: human IgG1/kappa
# B13: TRGB162 (antibody, human IgG1, kappa, V domains shown)
# VH: B3 VH with T57N, G100V, R101Y, N102K, S103R, R105V, D107N
# VL: B1 VL
# notes: human IgG1/kappa
# Target: T1, Cyno GITR (cell surface) (cynomolgus monkey)
# T1 construct: Presented on transfected or transduced HEK293 cells; also called cynomolgus monkey GITR
# T1 chain: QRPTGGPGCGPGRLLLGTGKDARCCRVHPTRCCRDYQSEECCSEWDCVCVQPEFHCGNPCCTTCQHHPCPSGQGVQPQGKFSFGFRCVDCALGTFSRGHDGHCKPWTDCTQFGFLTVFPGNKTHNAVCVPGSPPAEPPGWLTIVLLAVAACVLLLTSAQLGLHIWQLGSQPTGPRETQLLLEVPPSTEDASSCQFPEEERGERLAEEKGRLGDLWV
# Assay: MSD-CAT, GITR-expressing HEK293 cells, study 1
# Description: (§1) The MSD-CAT was developed in-house as a label-free method to determine affinity using intact cells in a high throughput format. The parental HEK293 cell line without any GITR expressed was used as a negative control.
# (§2) These samples were prepared in DMEM Glutamax medium (Invitrogen, Prod #10569-044) with 0.05% Azide, 1% BSA, 3 mM EDTA. After equilibration the plates were centrifuged for 5 min at 2000 rpm and free anti-GITR mAbs are detected in the supernatant. The free anti-GITR mAbs in the mixture were detected by electrochemiluminescence (ECL) using MSD reader instrument. For detection, MSD-Streptavidin plates (MesoScale Discovery, Prod #L11SA-1) were coated with 0.1 μg/mL of biotinylated human-GITR antigen in assay buffer at 50 μL/well and equilibrated overnight (˜16 hr at 4° C.). […] After 1 hr, the plates were washed three times with wash buffer and 150 μL of MSD Read Buffer (MesoScale Discovery Cat #R92TC-1; prepared by diluting 1:3 of stock into d. H2O) were added per well. The plates were read immediately on the MSD Sector Imager 6000 Reader for luminescence levels. ECL signal detected by MSD was expressed in term of % free antibody in the mixture and the data was analyzed to determine affinity using a user defined equation (derived from the law of mass action) introduced in Prism software.
row,Binder,Kd
1,B1,0.115 nM

# Target: T2, Human GITR (cell surface) (human, UniProt Q9Y5U5 26-241)
# T2 construct: also called hGITR; huGITR
# T2 sequence: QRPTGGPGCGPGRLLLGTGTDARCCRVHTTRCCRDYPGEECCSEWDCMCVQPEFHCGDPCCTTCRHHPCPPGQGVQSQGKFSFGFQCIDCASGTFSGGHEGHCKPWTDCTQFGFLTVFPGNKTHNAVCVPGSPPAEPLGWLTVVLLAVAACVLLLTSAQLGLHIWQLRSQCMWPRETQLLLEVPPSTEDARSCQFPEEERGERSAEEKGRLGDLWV
# Assay: MSD-CAT, GITR-expressing HEK293 cells, study 1
# Description: as §1, §2
row,Binder,Kd
1,B1,~0.01 nM

# Target: T1, Cyno GITR (cell surface)
# Assay: cell-based or functional assay
row,Binder,"ADCC EC50, HEK293-cyno GITR target cells, NK-92 FcγRIIIa 176V/V effector cells"
1,B1,2.5 ng/mL
2,B2,10.2 ng/mL
3,B3,25.8 ng/mL

# Target: T2, Human GITR (cell surface)
# Assay: cell-based or functional assay
Binder,"ADCC EC50, HEK293-hGITR target cells, NK-92 FcγRIIIa 176V/V effector cells","ADCC EC50, HT1080-hGITR target cells, NK-92 FcγRIIIa 176V/V effector cells"
B4,5.8 ng/mL,–
B5,7.6 ng/mL,–
B1,1.9 ng/mL,–
B2,4.4 ng/mL,–
B3,2.9 ng/mL,6.7 ng/mL

# Target: T1, Cyno GITR (cell surface)
# Assay: MSD-CAT, cyno against human GITR, study 1
# Description: as §1, §2
row,Binder,KD Fold Difference (Cy/Hu)
1,B1,11.4 fold

# Target: T3, cyno GITR ECD (cynomolgus monkey)
# T3 construct: Only the extracellular domain stood in the SPR assay
# T3 chain: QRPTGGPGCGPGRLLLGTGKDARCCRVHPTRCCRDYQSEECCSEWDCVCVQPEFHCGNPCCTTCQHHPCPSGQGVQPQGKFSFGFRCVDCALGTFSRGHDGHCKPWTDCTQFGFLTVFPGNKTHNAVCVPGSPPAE
# Assay: SPR (ProteOn XPR36), mAb captured by anti-human Fc, GITR ECD as analyte, 25 °C
# Description: (§3) The affinities of the GITR antibodies to recombinant human GITR ECD were measured by Surface Plasmon Resonance (SPR) using a ProteOn XPR36 protein interaction array system (BioRad).
# (§4) The rates of GITR ECD association and dissociation were measured for each variant. The biosensor surface was prepared by covalently coupling Goat anti-Human IgG (Fc) to the surface of a GLC chip (BioRad) using the manufacturer instructions for amine-coupling chemistry. Approximately 8800 RU (response units) of Goat anti-Human IgG (Fc) antibody (Jackson ImmunoResearch laboratories Prod #109-005-098) were immobilized. […] Since the mixture was 1:1 about 50% of these RU immobilized are expected to be goat anti-human Fc. The binding kinetics experiments were performed at 25° C. in running buffer (PBS pH 7.4, 0.005% P20, 3 mM EDTA). […] (1:3) serial dilutions of human GITR ECD or cyno GITR ECD starting at 100 nM were prepared in running buffer. […] The reference spots (Goat anti-Human IgG (Fc)-modified surface) containing no candidate captured were used as a reference surface. Capture of mAb was followed by 3 min injection (association phase) of antigen at 40 μL/min, followed by 10 min of buffer flow (dissociation phase). The chip surface was regenerated by injection of 0.85% phosphoric acid at 100 μL/min. Data were processed on the instrument software. Double reference subtraction of the data was performed by subtracting the curves generated by buffer injection from the reference-subtracted curves for analyte injections. Kinetic analysis of the data was performed using 1:1 Langmuir binding model with group fit. The result for each mAb was reported in the format of kon or on-rate, koff or off-rate, and KD (Equilibrium dissociation constant) (Table 7).
Binder,Kd,koff,kon
B1,8.6 nM,0.00257 s⁻¹,299000 M⁻¹ s⁻¹
B3,10.6 nM,0.00197 s⁻¹,185000 M⁻¹ s⁻¹

# Target: T4, recombinant human GITR ECD (human, UniProt Q9Y5U5 26-161)
# T4 construct: also called human GITR extracellular domain
# T4 sequence: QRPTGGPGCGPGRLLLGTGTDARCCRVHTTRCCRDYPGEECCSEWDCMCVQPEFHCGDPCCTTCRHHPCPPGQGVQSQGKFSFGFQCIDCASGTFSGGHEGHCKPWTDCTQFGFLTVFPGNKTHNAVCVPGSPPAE
# Assay: as above
# Description: as §3, §4
Binder,Kd,koff,kon
B1,0.0202 nM,2.02e-05 s⁻¹,996000 M⁻¹ s⁻¹
B3,3.04 nM,0.00162 s⁻¹,532000 M⁻¹ s⁻¹

# Target: T1, Cyno GITR (cell surface)
# Assay: flow cytometry, transiently transfected HEK293F cells, 0.1 mg/mL antibody
row,Binder,binding result
1,B6,binds
2,B7,binds
3,B8,binds
4,B4,binds
5,B5,binds
6,B9,binds
7,B10,binds
8,B11,binds
9,B12,binds
10,B13,binds

# Target: T2, Human GITR (cell surface)
# Assay: as above
row,Binder,binding result
1,B6,binds
2,B7,binds
3,B8,binds
4,B9,binds
5,B10,binds
6,B11,binds
7,B12,binds
8,B13,binds
